Here are results for 1 substance from publication PMC9517163.

By pKd is commonly meant the Kd on a negative log10 scale, so that one unit is a factor of ten. Read a high pKd as a small Kd.

The assay deals with minke whale ACE2, mFc-tagged (minke whale). As to the kind of experiment: SPR. Background: SPR reads the build-up and loss of mass on a sensor chip optically.

pKd: −log10 of the molar value.

On to “SARS-CoV-2 Omicron BA.1 receptor-binding domain (RBD) (from UniProt P0DTC2) (domain or fragment)”, for which the negative-log Kd (pKd) was 6.60.
